Reference: the supplement of paper PMC10567573

B1: SPOPL (parent)
chain: YTGRAPNLDKMADNLLAAADKYAL

Variants of: B1
Experiment: protein stability index of a GFP-peptide fusion (GPS, HEK-293T) (PSI 1-6); higher = more stable
Details: c terminus: a fixed tail appended
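Also: lentivirally expressed fusions sorted by FACS into six bins by GFP to DsRed ratio, PSI derived from sequencing read proportions per bin multiplied by bin number.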

Variant	protein stability index
YTYRAPNLDKMADNLLAAADKYAL [G3Y]	2.82
YTGRAPNLDKMADNLLDAADKYAL [A17D]	2.7
YTGRAPNLDKMADNLLIAADKYAL [A17I]	1.58
YTGRAPNLDTMADNLLAAADKYAL [K10T]	1.75
YTGRAPNLDCMADNLLAAADKYAL [K10C]	1.35
YTGRAPNLDDMADNLLAAADKYAL [K10D]	1.91
YTGRAPNLDKMADNLLAAPDKYAL [A19P]	2.7
YTGRAPNLDKMADNLLAAWDKYAL [A19W]	1.37
YTGRAPNLDKMADNLLAAKDKYAL [A19K]	1.64
YTGRAPNLDKMADNLLAAADKQAL [Y22Q]	2.17
YTGRAPNLDKMADNLLAAADKHAL [Y22H]	2.18
YTGRAPNLDKMADNLLAAADKDAL [Y22D]	2.03
YTGRAPNLDKMADNLLAAADKNAL [Y22N]	3.3
YTGSAPNLDKMADNLLAAADKYAL [R4S]	2.77
YTGPAPNLDKMADNLLAAADKYAL [R4P]	2.75
YTGTAPNLDKMADNLLAAADKYAL [R4T]	1.84
YTGYAPNLDKMADNLLAAADKYAL [R4Y]	2.02
YTGQAPNLDKMADNLLAAADKYAL [R4Q]	2.86
YRGRAPNLDKMADNLLAAADKYAL [T2R]	2.43
YHGRAPNLDKMADNLLAAADKYAL [T2H]	2.4
YVGRAPNLDKMADNLLAAADKYAL [T2V]	2.97
YFGRAPNLDKMADNLLAAADKYAL [T2F]	2.47
YNGRAPNLDKMADNLLAAADKYAL [T2N]	2.93
YDGRAPNLDKMADNLLAAADKYAL [T2D]	3.75

Variant	protein stability index
YTGRAPNLDKMADNLLAAADKYHL [A23H]	1.78
YTGRAPNLDKMADNLLAAADKYFL [A23F]	1.81
YTGRAPNLDKMADNLLAAADKYQL [A23Q]	2.4
YTGRAPNLDKMADNLLAAADKYLL [A23L]	1.67
YTGRAPNLDKMADNLLAAADKYYL [A23Y]	2.02
YTGRAPNLDKDADNLLAAADKYAL [M11D]	2.42
YTGRAPNLDKHADNLLAAADKYAL [M11H]	2.47
YTGRAPNLDKYADNLLAAADKYAL [M11Y]	1.31
YTGRAPNLDKWADNLLAAADKYAL [M11W]	2.21
YTGRAPNLDKRADNLLAAADKYAL [M11R]	2.05
YTGRAPNLDKEADNLLAAADKYAL [M11E]	2.56
YTGRAPNLDKAADNLLAAADKYAL [M11A]	2.02
YTGRAPNLDKGADNLLAAADKYAL [M11G]	1.62
YTGRAPNLDKKADNLLAAADKYAL [M11K]	2.15
YTGRAPNLDKMADNYLAAADKYAL [L15Y]	1.98
YTGRAPNLDKMADNILAAADKYAL [L15I]	2.25
YTGRAPNLDKMADNNLAAADKYAL [L15N]	2.74
YTGRAPNLDKMADNMLAAADKYAL [L15M]	2.19
YTGRAPNLDKMADNCLAAADKYAL [L15C]	2.87
YTGRAPNLDKMADNKLAAADKYAL [L15K]	3.64
YTGRAPNLDKMADNGLAAADKYAL [L15G]	2.35
YTGRAPNLDKMADNTLAAADKYAL [L15T]	2.32
YTGRAPNLDKMADNLLAGADKYAL [A18G]	2.61
YTGRAPNLDKMADNLLAHADKYAL [A18H]	1.96

Variant	protein stability index
YTGRAPNLDKMADNLLASADKYAL [A18S]	2.18
YTGRAPNLDKMADNLLADADKYAL [A18D]	2.62
YTGRAPNLDKMADNLLACADKYAL [A18C]	1.51
YTGRAPNLDKMADNLLALADKYAL [A18L]	2.7
YTGRAPNLDKMADMLLAAADKYAL [N14M]	2.37
YTGRAPNLDKMADFLLAAADKYAL [N14F]	1.84
YTGRAPNLDKMADWLLAAADKYAL [N14W]	1.45
YTGRAPNLDKMADRLLAAADKYAL [N14R]	2.39
YTGRVPNLDKMADNLLAAADKYAL [A5V]	1.78
YTGRRPNLDKMADNLLAAADKYAL [A5R]	1.74
YTGRIPNLDKMADNLLAAADKYAL [A5I]	1.58
YTGRHPNLDKMADNLLAAADKYAL [A5H]	1.47
YTGRMPNLDKMADNLLAAADKYAL [A5M]	1.51
YTGRGPNLDKMADNLLAAADKYAL [A5G]	1.93
YTGRAPNLDKMADNLLAAADGYAL [K21G]	1.81
YTGRAPNLDKMADNLLAAADSYAL [K21S]	1.92
YTGRAPNLSKMADNLLAAADKYAL [D9S]	1.78
YTGRAPNLFKMADNLLAAADKYAL [D9F]	3.79
YTGRAPNLAKMADNLLAAADKYAL [D9A]	2.12
YTGRAPNLDKMADNLQAAADKYAL [L16Q]	2.73
YTGRAPNLDKMADNLCAAADKYAL [L16C]	1.59
YTGRAPNLDKMADNLAAAADKYAL [L16A]	2.24
YTGRAPNLDKMADNLFAAADKYAL [L16F]	1.22
YTGRAPNLDKMADNLRAAADKYAL [L16R]	2.65

Variant	protein stability index
YTGRAPNLDKMADNLLAAADKYAP [L24P]	2.17
YTGRAPNLDKMADNLLAAADKYAQ [L24Q]	2.16
YTGRANNLDKMADNLLAAADKYAL [P6N]	2.49
YTGRAKNLDKMADNLLAAADKYAL [P6K]	1.43
YTGRAGNLDKMADNLLAAADKYAL [P6G]	1.68
YTGRAANLDKMADNLLAAADKYAL [P6A]	1.88
YTGRAPNLDKMAINLLAAADKYAL [D13I]	2.42
YTGRAPNLDKMAQNLLAAADKYAL [D13Q]	1.91
YTGRAPNLDKMAMNLLAAADKYAL [D13M]	2.12
YTGRAPVLDKMADNLLAAADKYAL [N7V]	1.7
YTGRAPHLDKMADNLLAAADKYAL [N7H]	1.68
YTGRAPYLDKMADNLLAAADKYAL [N7Y]	1.27
YTGRAPFLDKMADNLLAAADKYAL [N7F]	3.09
YTGRAPALDKMADNLLAAADKYAL [N7A]	1.98
YTGRAPILDKMADNLLAAADKYAL [N7I]	1.81
YTGRAPNCDKMADNLLAAADKYAL [L8C]	2.28
YTGRAPNDDKMADNLLAAADKYAL [L8D]	3
YTGRAPNHDKMADNLLAAADKYAL [L8H]	2.38
YTGRAPNIDKMADNLLAAADKYAL [L8I]	1.85
YTGRAPNMDKMADNLLAAADKYAL [L8M]	1.8
NTGRAPNLDKMADNLLAAADKYAL [Y1N]	3.81
MTGRAPNLDKMADNLLAAADKYAL [Y1M]	3.06
